From US20220050116A1

Target: synthetic collagen peptides
Assay: ELISA-like assay: biotin-labeled peptides titrated on plate-immobilized D-CHP, 4-parameter Hill fit

Kd: 10 to 270 nM
Substance: D-CHP, dimeric collagen hybridizing peptide [Ac-(GPO)6-G3]2-K-GK (designed binder)
